According to the supplement of paper PMC10724198:
± gives the standard deviation of the averaged measurements.

Assays:
Saccharomyces cerevisiae [1] = test: protein stability index of tFT-peptide fusion (C-terminal peptide) (PSI (0-1 scale)); higher = more stable (slower turnover)
Method: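 MPS profiling in S. cerevisiae of the tFT-X12 degron library: putative degron peptides plus stable controls, 12 aa, fused to the C-terminus of a sfGFP-mCherry timer. Cells are FACS-sorted into 8 mCherry/sfGFP bins and deep-sequenced. PSI runs from 0 (unstable) to 1 (stable). Backgrounds are wild type, das1Δ and doa10Δ at 30 °C, and wild type, das1Δ, cdc34-1 and cdc53-1 at 37 °C; 2-3 technical replicates each.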

Saccharomyces cerevisiae [2] = test: as above; conditions: genetic background: wild type; temperature: 30 C
[3] = genetic background: cdc34-1, temperature: 37 C
[4] = genetic background: cdc53-1, temperature: 37 C
[5] = genetic background: das1 deletion, temperature: 30 C
[6] = genetic background: das1 deletion, temperature: 37 C
[7] = genetic background: doa10 deletion, temperature: 30 C
[8] = genetic background: wild type, temperature: 30 C
[9] = genetic background: wild type, temperature: 37 C
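Note: PSI is a weighted mean of sequencing reads over stability bins, variants kept only with over 10 reads, mCherry proximal and sfGFP distal, peptide attached via GGGS linker.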

WNSQGVFILAKC
protein stability index (Saccharomyces cerevisiae [1]; [3]): 0.54 ± 0.035 | protein stability index (Saccharomyces cerevisiae [1]; [4]): 0.588 ± 0.032 | protein stability index (Saccharomyces cerevisiae [1]; [5]): 0.375 ± 0.026 | protein stability index (Saccharomyces cerevisiae [1]; [6]): 0.5687 ± 0.0026 | protein stability index (Saccharomyces cerevisiae [1]; [7]): 0.334 ± 0.021 | protein stability index (Saccharomyces cerevisiae [1]; [8]): 0.372 ± 0.021 | protein stability index (Saccharomyces cerevisiae [1]; [9]): 0.561 ± 0.00046 | protein stability index (Saccharomyces cerevisiae [2]): 0.4783 ± 0.0023

FLSPPPFLALLP
protein stability index (Saccharomyces cerevisiae [1]; [3]): 0.7 ± 0.03 | protein stability index (Saccharomyces cerevisiae [1]; [4]): 0.758 ± 0.022 | protein stability index (Saccharomyces cerevisiae [1]; [5]): 0.675 ± 0.015 | protein stability index (Saccharomyces cerevisiae [1]; [6]): 0.76275 ± 0.00029 | protein stability index (Saccharomyces cerevisiae [1]; [7]): 0.691 ± 0.028 | protein stability index (Saccharomyces cerevisiae [1]; [8]): 0.6908 ± 0.0045 | protein stability index (Saccharomyces cerevisiae [1]; [9]): 0.717 ± 0.014 | protein stability index (Saccharomyces cerevisiae [2]): 0.723 ± 0.023

WLFRASSFNWVI
protein stability index (Saccharomyces cerevisiae [1]; [3]): 0.537 ± 0.017 | protein stability index (Saccharomyces cerevisiae [1]; [4]): 0.7359 ± 0.0063 | protein stability index (Saccharomyces cerevisiae [1]; [5]): 0.689 ± 0.04 | protein stability index (Saccharomyces cerevisiae [1]; [6]): 0.802 ± 0.025 | protein stability index (Saccharomyces cerevisiae [1]; [7]): 0.0843 ± 0.016 | protein stability index (Saccharomyces cerevisiae [1]; [8]): 0.105 ± 0.026 | protein stability index (Saccharomyces cerevisiae [1]; [9]): 0.188 ± 0.019 | protein stability index (Saccharomyces cerevisiae [2]): 0.105 ± 0.036

CYTGYMYKLLVG
protein stability index (Saccharomyces cerevisiae [1]; [3]): 0.507 ± 0.054 | protein stability index (Saccharomyces cerevisiae [1]; [4]): 0.547 ± 0.01 | protein stability index (Saccharomyces cerevisiae [1]; [5]): 0.48 ± 0.031 | protein stability index (Saccharomyces cerevisiae [1]; [6]): 0.59019 ± 0.00036 | protein stability index (Saccharomyces cerevisiae [1]; [7]): 0.2458 ± 0.00076 | protein stability index (Saccharomyces cerevisiae [1]; [8]): 0.243 ± 0.027 | protein stability index (Saccharomyces cerevisiae [1]; [9]): 0.423 ± 0.015 | protein stability index (Saccharomyces cerevisiae [2]): 0.346 ± 0.027

EVTRMLRVVREI
protein stability index (Saccharomyces cerevisiae [1]; [3]): 0.689 ± 0.035 | protein stability index (Saccharomyces cerevisiae [1]; [4]): 0.761 ± 0.032 | protein stability index (Saccharomyces cerevisiae [1]; [5]): 0.631 ± 0.026 | protein stability index (Saccharomyces cerevisiae [1]; [6]): 0.768 ± 0.016 | protein stability index (Saccharomyces cerevisiae [1]; [7]): 0.322 ± 0.0093 | protein stability index (Saccharomyces cerevisiae [1]; [8]): 0.38 ± 0.032 | protein stability index (Saccharomyces cerevisiae [1]; [9]): 0.588 ± 0.02 | protein stability index (Saccharomyces cerevisiae [2]): 0.456 ± 0.065

FRRSFPFPLFLR
protein stability index (Saccharomyces cerevisiae [1]; [3]): 0.105 ± 0.014 | protein stability index (Saccharomyces cerevisiae [1]; [4]): 0.0555 ± 0.0048 | protein stability index (Saccharomyces cerevisiae [1]; [5]): 0.196 ± 0.031 | protein stability index (Saccharomyces cerevisiae [1]; [6]): 0.238 ± 0.03 | protein stability index (Saccharomyces cerevisiae [1]; [7]): 0.696 ± 0.04 | protein stability index (Saccharomyces cerevisiae [1]; [8]): 0.197 ± 0.045 | protein stability index (Saccharomyces cerevisiae [1]; [9]): 0.219 ± 0.0033 | protein stability index (Saccharomyces cerevisiae [2]): 0.232 ± 0.12

CFVFYALFGFAV
protein stability index (Saccharomyces cerevisiae [1]; [3]): 0.37 ± 0.037 | protein stability index (Saccharomyces cerevisiae [1]; [4]): 0.463 ± 0.027 | protein stability index (Saccharomyces cerevisiae [1]; [5]): 0.302 ± 0.036 | protein stability index (Saccharomyces cerevisiae [1]; [6]): 0.484 ± 0.0052 | protein stability index (Saccharomyces cerevisiae [1]; [7]): 0.252 ± 0.0068 | protein stability index (Saccharomyces cerevisiae [1]; [8]): 0.285 ± 0.017 | protein stability index (Saccharomyces cerevisiae [1]; [9]): 0.431 ± 0.046 | protein stability index (Saccharomyces cerevisiae [2]): 0.401 ± 0.013

FSRFPFVKLSLV
protein stability index (Saccharomyces cerevisiae [1]; [3]): 0.642 ± 0.059 | protein stability index (Saccharomyces cerevisiae [1]; [4]): 0.731 ± 0.019 | protein stability index (Saccharomyces cerevisiae [1]; [5]): 0.6201 ± 0.0056 | protein stability index (Saccharomyces cerevisiae [1]; [6]): 0.70163 ± 0.00051 | protein stability index (Saccharomyces cerevisiae [1]; [7]): 0.161 ± 0.0044 | protein stability index (Saccharomyces cerevisiae [1]; [8]): 0.197 ± 0.048 | protein stability index (Saccharomyces cerevisiae [1]; [9]): 0.306 ± 0.012 | protein stability index (Saccharomyces cerevisiae [2]): 0.297 ± 0.016

RLVYSQKRWSLF
protein stability index (Saccharomyces cerevisiae [1]; [3]): 0.673 ± 0.07 | protein stability index (Saccharomyces cerevisiae [1]; [4]): 0.764 ± 0.032 | protein stability index (Saccharomyces cerevisiae [1]; [5]): 0.653 ± 0.014 | protein stability index (Saccharomyces cerevisiae [1]; [6]): 0.76378 ± 0.0006 | protein stability index (Saccharomyces cerevisiae [1]; [7]): 0.167 ± 0.037 | protein stability index (Saccharomyces cerevisiae [1]; [8]): 0.181 ± 0.032 | protein stability index (Saccharomyces cerevisiae [1]; [9]): 0.451 ± 0.027 | protein stability index (Saccharomyces cerevisiae [2]): 0.24 ± 0.006

ARLTNYFVEWLS
protein stability index (Saccharomyces cerevisiae [1]; [3]): 0.667 ± 0.012 | protein stability index (Saccharomyces cerevisiae [1]; [4]): 0.757 ± 0.012 | protein stability index (Saccharomyces cerevisiae [1]; [5]): 0.657 ± 0.0066 | protein stability index (Saccharomyces cerevisiae [1]; [6]): 0.746 ± 0.012 | protein stability index (Saccharomyces cerevisiae [1]; [7]): 0.358 ± 0.023 | protein stability index (Saccharomyces cerevisiae [1]; [8]): 0.383 ± 0.029 | protein stability index (Saccharomyces cerevisiae [1]; [9]): 0.592 ± 0.012 | protein stability index (Saccharomyces cerevisiae [2]): 0.4612 ± 0.00085

LFFASFLLIGPF
protein stability index (Saccharomyces cerevisiae [1]; [3]): 0.4091 ± 0.0033 | protein stability index (Saccharomyces cerevisiae [1]; [4]): 0.4803 ± 0.003 | protein stability index (Saccharomyces cerevisiae [1]; [5]): 0.375 ± 0.039 | protein stability index (Saccharomyces cerevisiae [1]; [6]): 0.499 ± 0.014 | protein stability index (Saccharomyces cerevisiae [1]; [7]): 0.354 ± 0.03 | protein stability index (Saccharomyces cerevisiae [1]; [8]): 0.321 ± 0.037 | protein stability index (Saccharomyces cerevisiae [1]; [9]): 0.483 ± 0.041 | protein stability index (Saccharomyces cerevisiae [2]): 0.393 ± 0.0098

SLLLLSLCRFVG
protein stability index (Saccharomyces cerevisiae [1]; [3]): 0.626 ± 0.022 | protein stability index (Saccharomyces cerevisiae [1]; [4]): 0.686 ± 0.017 | protein stability index (Saccharomyces cerevisiae [1]; [5]): 0.6 ± 0.012 | protein stability index (Saccharomyces cerevisiae [1]; [6]): 0.702 ± 0.023 | protein stability index (Saccharomyces cerevisiae [1]; [7]): 0.194 ± 0.02 | protein stability index (Saccharomyces cerevisiae [1]; [8]): 0.232 ± 0.036 | protein stability index (Saccharomyces cerevisiae [1]; [9]): 0.384 ± 0.013 | protein stability index (Saccharomyces cerevisiae [2]): 0.372 ± 0.026

LSYRFVFRFLLF
protein stability index (Saccharomyces cerevisiae [1]; [3]): 0.543 ± 0.067 | protein stability index (Saccharomyces cerevisiae [1]; [4]): 0.592 ± 0.0035 | protein stability index (Saccharomyces cerevisiae [1]; [5]): 0.525 ± 0.013 | protein stability index (Saccharomyces cerevisiae [1]; [6]): 0.573 ± 0.014 | protein stability index (Saccharomyces cerevisiae [1]; [7]): 0.39 ± 0.017 | protein stability index (Saccharomyces cerevisiae [1]; [8]): 0.372 ± 0.027 | protein stability index (Saccharomyces cerevisiae [1]; [9]): 0.472 ± 0.0083 | protein stability index (Saccharomyces cerevisiae [2]): 0.421 ± 0.0094

VPGPSPPRFTQR
protein stability index (Saccharomyces cerevisiae [1]; [3]): 0.7134 ± 0.0016 | protein stability index (Saccharomyces cerevisiae [1]; [4]): 0.762 ± 0.016 | protein stability index (Saccharomyces cerevisiae [1]; [5]): 0.6584 ± 0.0019 | protein stability index (Saccharomyces cerevisiae [1]; [6]): 0.741 ± 0.0094 | protein stability index (Saccharomyces cerevisiae [1]; [7]): 0.644 ± 0.028 | protein stability index (Saccharomyces cerevisiae [1]; [8]): 0.656 ± 0.011 | protein stability index (Saccharomyces cerevisiae [1]; [9]): 0.692 ± 0.025 | protein stability index (Saccharomyces cerevisiae [2]): 0.559 ± 0.1

RWELASKCRLCV
protein stability index (Saccharomyces cerevisiae [1]; [3]): 0.563 ± 0.0077 | protein stability index (Saccharomyces cerevisiae [1]; [4]): 0.6716 ± 0.0053 | protein stability index (Saccharomyces cerevisiae [1]; [5]): 0.563 ± 0.021 | protein stability index (Saccharomyces cerevisiae [1]; [6]): 0.7123 ± 0.0068 | protein stability index (Saccharomyces cerevisiae [1]; [7]): 0.148 ± 0.011 | protein stability index (Saccharomyces cerevisiae [1]; [8]): 0.16 ± 0.029 | protein stability index (Saccharomyces cerevisiae [1]; [9]): 0.304 ± 0.061 | protein stability index (Saccharomyces cerevisiae [2]): 0.296 ± 0.04

LASFCSVCIFIS
protein stability index (Saccharomyces cerevisiae [1]; [3]): 0.224 ± 0.0054 | protein stability index (Saccharomyces cerevisiae [1]; [4]): 0.31 ± 0.014 | protein stability index (Saccharomyces cerevisiae [1]; [5]): 0.238 ± 0.017 | protein stability index (Saccharomyces cerevisiae [1]; [6]): 0.429 ± 0.0071 | protein stability index (Saccharomyces cerevisiae [1]; [7]): 0.099 ± 0.0025 | protein stability index (Saccharomyces cerevisiae [1]; [8]): 0.127 ± 0.033 | protein stability index (Saccharomyces cerevisiae [1]; [9]): 0.17 ± 0.012 | protein stability index (Saccharomyces cerevisiae [2]): 0.163 ± 0.029

VSDLYLSLVRVV
protein stability index (Saccharomyces cerevisiae [1]; [3]): 0.59 ± 0.032 | protein stability index (Saccharomyces cerevisiae [1]; [4]): 0.593 ± 0.011 | protein stability index (Saccharomyces cerevisiae [1]; [5]): 0.46 ± 0.034 | protein stability index (Saccharomyces cerevisiae [1]; [6]): 0.604 ± 0.009 | protein stability index (Saccharomyces cerevisiae [1]; [7]): 0.256 ± 0.0031 | protein stability index (Saccharomyces cerevisiae [1]; [8]): 0.31 ± 0.029 | protein stability index (Saccharomyces cerevisiae [1]; [9]): 0.492 ± 0.017 | protein stability index (Saccharomyces cerevisiae [2]): 0.45 ± 0.078

VHNIDLFVVCYI
protein stability index (Saccharomyces cerevisiae [1]; [3]): 0.433 ± 0.025 | protein stability index (Saccharomyces cerevisiae [1]; [4]): 0.443 ± 0.014 | protein stability index (Saccharomyces cerevisiae [1]; [5]): 0.251 ± 0.047 | protein stability index (Saccharomyces cerevisiae [1]; [6]): 0.482 ± 0.0094 | protein stability index (Saccharomyces cerevisiae [1]; [7]): 0.222 ± 0.0048 | protein stability index (Saccharomyces cerevisiae [1]; [8]): 0.258 ± 0.027 | protein stability index (Saccharomyces cerevisiae [1]; [9]): 0.451 ± 0.015 | protein stability index (Saccharomyces cerevisiae [2]): 0.346 ± 0.0067

VPWSKIAARLII
protein stability index (Saccharomyces cerevisiae [1]; [3]): 0.6593 ± 0.0029 | protein stability index (Saccharomyces cerevisiae [1]; [4]): 0.706 ± 0.011 | protein stability index (Saccharomyces cerevisiae [1]; [5]): 0.618 ± 0.02 | protein stability index (Saccharomyces cerevisiae [1]; [6]): 0.734 ± 0.022 | protein stability index (Saccharomyces cerevisiae [1]; [7]): 0.227 ± 0.015 | protein stability index (Saccharomyces cerevisiae [1]; [8]): 0.315 ± 0.054 | protein stability index (Saccharomyces cerevisiae [1]; [9]): 0.5015 ± 0.0036 | protein stability index (Saccharomyces cerevisiae [2]): 0.446 ± 0.068

VYVLVFNMENIS
protein stability index (Saccharomyces cerevisiae [1]; [3]): 0.5603 ± 0.0009 | protein stability index (Saccharomyces cerevisiae [1]; [4]): 0.588 ± 0.0096 | protein stability index (Saccharomyces cerevisiae [1]; [5]): 0.382 ± 0.03 | protein stability index (Saccharomyces cerevisiae [1]; [6]): 0.616 ± 0.011 | protein stability index (Saccharomyces cerevisiae [1]; [7]): 0.382 ± 0.0068 | protein stability index (Saccharomyces cerevisiae [1]; [8]): 0.401 ± 0.033 | protein stability index (Saccharomyces cerevisiae [1]; [9]): 0.585 ± 0.036 | protein stability index (Saccharomyces cerevisiae [2]): 0.4891 ± 0.0047
